Source: patent US7354734B2, “Fungal proteins and nucleic acids encoding same” (priority 2003, dated 2008)
“Also recorded” adds a separate entry of the source.

B1: fuLAP2: A. fumigatus leucine aminopeptidase, 498 amino acid residues (SEQ ID NO: 9) (protein, listed as Aspergillus fumigatus)
chain: MKLLYLTSFASLAVANGPGWDWKPRVHPKVLPQMIHLWDLLQGAQQLEDFAYAYPERNRVFGGRAHEDTVNYLYRELKKTGYYDVYKQPQVHQWTRADQALTVDGQSYDATTMTYSPSVNATAPLAVVNNLGCVEADYPADLTGKIALISRGECTFATKSVLSAKAGAAAALVYNNIEGSMAGTLGGATSELGAYAPIAGISLADGQALIQMIQAGTVTANLWIDSQVENRTTYNVIAQTKGGDPNNVVALGGHTDSVEAGPGINDDGSGIISNLVVAKALTRFSVKNAVRFCFWTAEEFGLLGSNYYVNSLNATEQAKIRLYLNFDMIASPNYALMIYDGDGSAFNLTGPAGSAQIERLFEDYYTSIRKPFVPTEFNGRSDYQAFILNGIPAGGLFTGAEAIKTEEQAQLFGGQAGVALDANYHAKGDNMTNLNREAFLINSRATAFAVATYANSLDSIPPRNMTTVVKRSQLEQAMKRTPHTHTGGTGCYKDRVEQ
B2: fuLAP1: A. fumigatus leucine aminopeptidase, 388 amino acid residues (SEQ ID NO: 12) (protein, listed as Aspergillus fumigatus)
chain: MKVLTAIALSAIAFTGAVAAVITQEAFLNNPRIHHDQEKYLIELAPYRTRWVTEEEKWALKLDGVNFIDITEEHNTGFYPTLHSASYVKYPPKMQYAEEVAALNKNLSKENMKANLERFTSFHTRYYKSQTGIRSATWLFDQVQRVVSESGAAEYGATVERFSHPWGQFSIIARIPGRTNKTVVLGAHQDSINLFLPSILAAPGADDDGSGTVTILEALRGLLQSDAIAKGNASNTVEFHWYSAEEGGMLGSQAIFSNYKRNRREIKAMLQQDMTGYVQGALNAGVEEAIGIMVDYVDQGLTQFLKDVVTAYCSVGYLETKCGYACSDHTSASKYGYPAAMATEAEMENTNKKIHTTDDKIKYLSFDHMLEHAKLSLGFAFELAFAPF

Experiments:
[1] = type: biochemical; conditions: for hydrolytic activity toward Ala-AMC in comparison to Leu-MCA used as a standard: substrate Ala-AMC 5 mM; for hydrolytic activity toward Ala-AMC in comparison to Leu-MCA used as a standard / hydrolytic activity toward Arg-AMC in comparison to Leu-MCA used as a standard / hydrolytic activity toward Asn-AMC in comparison to Leu-MCA used as a standard / hydrolytic activity toward Asp-AMC in comparison to Leu-MCA used as a standard / hydrolytic activity toward Cys-AMC in comparison to Leu-MCA used as a standard / hydrolytic activity toward Gln-AMC in comparison to Leu-MCA used as a standard / hydrolytic activity toward Glu-AMC in comparison to Leu-MCA used as a standard / hydrolytic activity toward Gly-AMC in comparison to Leu-MCA used as a standard / hydrolytic activity toward Gly-Pro-AMC in comparison to Leu-MCA used as a standard / hydrolytic activity toward His-AMC in comparison to Leu-MCA used as a standard / hydrolytic activity toward Hyp-AMC in comparison to Leu-MCA used as a standard / hydrolytic activity toward Ile-AMC in comparison to Leu-MCA used as a standard / hydrolytic activity toward Leu-AMC in comparison to Leu-MCA used as a standard / hydrolytic activity toward Lys-AMC in comparison to Leu-MCA used as a standard / hydrolytic activity toward Met-AMC in comparison to Leu-MCA used as a standard / hydrolytic activity toward Phe-AMC in comparison to Leu-MCA used as a standard / hydrolytic activity toward Pro-AMC in comparison to Leu-MCA used as a standard / hydrolytic activity toward Pyr-AMC in comparison to Leu-MCA used as a standard / hydrolytic activity toward Ser-AMC in comparison to Leu-MCA used as a standard / hydrolytic activity toward Thr-AMC in comparison to Leu-MCA used as a standard / hydrolytic activity toward Val-AMC in comparison to Leu-MCA used as a standard: 37° C., 60 min; for hydrolytic activity toward Arg-AMC in comparison to Leu-MCA used as a standard: substrate Arg-AMC 5 mM; for hydrolytic activity toward Asn-AMC in comparison to Leu-MCA used as a standard: substrate Asn-AMC 5 mM; for hydrolytic activity toward Asp-AMC in comparison to Leu-MCA used as a standard: substrate Asp-AMC 5 mM; for hydrolytic activity toward Cys-AMC in comparison to Leu-MCA used as a standard: substrate Cys-AMC 5 mM; for hydrolytic activity toward Gln-AMC in comparison to Leu-MCA used as a standard: substrate Gln-AMC 5 mM; for hydrolytic activity toward Glu-AMC in comparison to Leu-MCA used as a standard: substrate Glu-AMC 5 mM; for hydrolytic activity toward Gly-AMC in comparison to Leu-MCA used as a standard: substrate Gly-AMC 5 mM; for hydrolytic activity toward Gly-Pro-AMC in comparison to Leu-MCA used as a standard: substrate Gly-Pro-AMC 5 mM; for hydrolytic activity toward His-AMC in comparison to Leu-MCA used as a standard: substrate His-AMC 5 mM; for hydrolytic activity toward Hyp-AMC in comparison to Leu-MCA used as a standard: substrate Hyp-AMC 5 mM; for hydrolytic activity toward Ile-AMC in comparison to Leu-MCA used as a standard: substrate Ile-AMC 5 mM; for hydrolysis of Leu-AMC: substrate Leu-AMC; for hydrolytic activity toward Leu-AMC in comparison to Leu-MCA used as a standard: substrate Leu-AMC 5 mM; for hydrolytic activity toward Lys-AMC in comparison to Leu-MCA used as a standard: substrate Lys-AMC 5 mM; for hydrolytic activity toward Met-AMC in comparison to Leu-MCA used as a standard: substrate Met-AMC 5 mM; for hydrolytic activity toward Phe-AMC in comparison to Leu-MCA used as a standard: substrate Phe-AMC 5 mM; for hydrolytic activity toward Pro-AMC in comparison to Leu-MCA used as a standard: substrate Pro-AMC 5 mM; for hydrolytic activity toward Pyr-AMC in comparison to Leu-MCA used as a standard: substrate Pyr-AMC 5 mM; for hydrolytic activity toward Ser-AMC in comparison to Leu-MCA used as a standard: substrate Ser-AMC 5 mM; for hydrolytic activity toward Thr-AMC in comparison to Leu-MCA used as a standard: substrate Thr-AMC 5 mM; for hydrolytic activity toward Val-AMC in comparison to Leu-MCA used as a standard: substrate Val-AMC 5 mM
[2] = type: biochemical; conditions: substrate Lys(Abz)Pro-PropNA 5 mM, 37° C., 60 min
[3] = tested on: gliadin 33mer (fragment 57-89 of gliadin MM1); assay: Digestion of gliadin 33mer (RP-HPLC, ESI-MS); type: biochemical, wheat; conditions: enzyme plus ruDPPIV (DPPIV), 37° C.

Row | Molecule | hydrolytic activity toward Ala-AMC in comparison to Leu-MCA used as a standard [1] [%] | hydrolytic activity toward Arg-AMC in comparison to Leu-MCA used as a standard [1] [%] | hydrolytic activity toward Asn-AMC in comparison to Leu-MCA used as a standard [1] [%] | hydrolytic activity toward Asp-AMC in comparison to Leu-MCA used as a standard [1] [%] | hydrolytic activity toward Cys-AMC in comparison to Leu-MCA used as a standard [1] [%] | hydrolytic activity toward Gln-AMC in comparison to Leu-MCA used as a standard [1] [%] | hydrolytic activity toward Glu-AMC in comparison to Leu-MCA used as a standard [1] [%] | hydrolytic activity toward Gly-AMC in comparison to Leu-MCA used as a standard [1] [%] | hydrolytic activity toward Gly-Pro-AMC in comparison to Leu-MCA used as a standard [1] [%] | hydrolytic activity toward His-AMC in comparison to Leu-MCA used as a standard [1] [%] | hydrolytic activity toward Hyp-AMC in comparison to Leu-MCA used as a standard [1] [%] | hydrolytic activity toward Ile-AMC in comparison to Leu-MCA used as a standard [1] [%] | hydrolysis of Leu-AMC [1] | hydrolytic activity toward Leu-AMC in comparison to Leu-MCA used as a standard [1] [%] | hydrolytic activity toward Lys-AMC in comparison to Leu-MCA used as a standard [1] [%] | hydrolytic activity toward Met-AMC in comparison to Leu-MCA used as a standard [1] [%] | hydrolytic activity toward Phe-AMC in comparison to Leu-MCA used as a standard [1] [%] | hydrolytic activity toward Pro-AMC in comparison to Leu-MCA used as a standard [1] [%] | hydrolytic activity toward Pyr-AMC in comparison to Leu-MCA used as a standard [1] [%] | hydrolytic activity toward Ser-AMC in comparison to Leu-MCA used as a standard [1] [%] | other results
1 | B1 | 11.7 | 2.3 | 73.5 | 0.3 | 2.1 | 37.0 | 1.1 | 2.2 | 74.1 | 1.9 | 13.3 | 1.8 | efficiently hydrolyzed; also recorded: common preference | 100.0 | 2.3 | 89.5 | 8.9 | 7.4 | 0.0 | 10.3 | hydrolytic activity toward Thr-AMC in comparison to Leu-MCA used as a standard [1]: 0.1%; hydrolytic activity toward Val-AMC in comparison to Leu-MCA used as a standard [1]: 0.8%; hydrolytic activity toward Lys(Abz)Pro-PropNA in comparison to Leu-MCA used as a standard [2]: 0.0%; digestion of gliadin 33mer, mixed with ruDPPIV [3]: same HPLC pattern
2 | B2 | 4.7 | 53.9 | 29.4 | 0.8 | 5.0 | 44.9 | 0.0 | 0.8 | 5.4 | 0.8 | 3.9 | 13.2 | efficiently hydrolyzed; also recorded: common preference | 100.0 | 7.7 | 116.9 | 163.7 | 12.0 | 0.0 | 10.3 | hydrolytic activity toward Arg-AMC ([1]; compared to Leu-AMC): appreciated; hydrolytic activity toward Phe-AMC ([1]; compared to Leu-AMC): appreciated; hydrolytic activity toward Val-AMC ([1]; compared to Leu-AMC): appreciated; hydrolytic activity toward Thr-AMC in comparison to Leu-MCA used as a standard [1]: 5.1%; hydrolytic activity toward Val-AMC in comparison to Leu-MCA used as a standard [1]: 27.6%; hydrolytic activity toward Lys(Abz)Pro-PropNA in comparison to Leu-MCA used as a standard [2]: 0.0%
